Test results from paper PMC10135725, “Vutiglabridin Modulates Paraoxonase 1 and Ameliorates Diet-Induced Obesity in Hyperlipidemic Mice” (Biomolecules, 2023).

Substrate: CCCCSC1CCC(=O)O1
Assay: purified protein
Type: biochemical, Homo sapiens
Settings: 50 mM Tris-HCl pH 8, 1 mM CaCl2, RT, no OX-LA, no vutiglabridin

B1: Recombinant PON1 (rePON1), carboxy-terminal hexahistidine tag (Homo sapiens) (protein)
chain: AKLIALTLLGMGLALFRNHQSSYQTRLNALREVQPVELPNCNLVKGIETGSEDLEILPNGLAFISSGLKYPGIKSFNPNSPGKILLMDLNEEDPTVLELGITGSKFDVSSFNPHGISTFTDEDNAMYLLVVNHPDAKSTVELFKFQEEEKSLLHLKTIRHKLLPNLNDIVAVGPEHFYGTNDHYFLDPYLQSWEMYLGLAWSYVVYYSPSEVRVVAEGFDFANGINISPDGKYVYIAELLAHKIHVYEKHANWTLTPLKSLDFNTLVDNISVDPETGDLWVGCHPNGMKIFFYDSENPPASEVLRIQNILTEEPKVTQVYAENGTVLQGSTVASVYKGKLLIGTVFHKALYCEL
notes: purified, C-terminal hexahistidine tag, expressed in CHO-K1 cells
- Km: 155.78 µM
- Vmax: 92.3 µM/min
